Drawing on doi:10.1101/2021.02.02.429416, this text covers EC50 and Kd for 2 substances.

pEC50, pKd: −log10 of the molar value.

For orientation: pEC50 means the negative decadic logarithm of the EC50, by convention in mol/L. Read a high pEC50 as a small EC50. The pKd is −log10 of the Kd, conventionally taken in molar units. High values mean a low Kd, low ones a high Kd.

Test [1] has as its target Aflibercept. Description: ELISA.
Test [2] concerns the target Aflibercept. Description: BLI. In general terms: In BLI a coated tip is dipped into the sample, and binding shifts an interference pattern.

Consider Human VEGF-A165 (ligand), for which the pEC50 with Aflibercept [1] is 8.77. The same substance had a pKd in the test with Aflibercept [2] of 11.57. Take Human VEGF-A121 (ligand): in the test with Aflibercept [1], the pEC50 was 8.79.
